According to the Immune Epitope Database (IEDB):

Experiments:
HLA-C*15:02 = test: IEDB peptide-MHC binding, purified MHC/direct/fluorescence; filed as Kd, often an IC50 or EC50 that approximates it; ≥ and ≤ were set here for values at or beyond the usual limits of such assays
HLA-B*58:01 = test: as above
HLA-A*11:01 = test: as above; conditions: source organism: Orthohantavirus hantanense
HLA-B*18:01 = test: IEDB peptide-MHC binding, purified MHC/competitive/fluorescence; filed as Kd, often an IC50 or EC50 that approximates it; ≥ and ≤ were set here for values at or beyond the usual limits of such assays; conditions: source organism: Zaire ebolavirus
HLA-B*46:01 = test: as above
HLA-B*27:03 = test: as above
HLA-A*02:01 [1] = test: as above; conditions: source organism: Zaire ebolavirus
HLA-A*26:01 = test: as above
HLA-A*69:01 = test: as above
HLA-B*39:01 = test: as above; conditions: source organism: Zaire ebolavirus
HLA-A*68:02 = test: IEDB peptide-MHC binding, purified MHC/direct/fluorescence; filed as Kd, often an IC50 or EC50 that approximates it; ≥ and ≤ were set here for values at or beyond the usual limits of such assays; conditions: source organism: Zaire ebolavirus
HLA-A*02:11 = test: as above; conditions: source organism: Zaire ebolavirus
HLA-A*29:02 = test: as above; conditions: source organism: Zaire ebolavirus
HLA-A*03:01 = test: as above; conditions: source organism: Zaire ebolavirus
HLA-A*02:19 = test: as above; conditions: source organism: Zaire ebolavirus
HLA-A*02:12 = test: as above; conditions: source organism: Zaire ebolavirus
HLA-A*02:16 = test: as above; conditions: source organism: Zaire ebolavirus
HLA-A*02:03 = test: as above; conditions: source organism: Zaire ebolavirus
HLA-A*24:02 = test: IEDB peptide-MHC binding, purified MHC/competitive/fluorescence; ≥ and ≤ were set here for values at or beyond the usual limits of such assays; conditions: source organism: Sudan ebolavirus
HLA-B*15:01 = test: IEDB peptide-MHC binding, purified MHC/competitive/fluorescence; filed as Kd, often an IC50 or EC50 that approximates it; ≥ and ≤ were set here for values at or beyond the usual limits of such assays; conditions: source organism: Zaire ebolavirus
HLA-B*15:17 = test: as above
HLA-B*51:01 = test: as above
HLA-B*57:01 = test: as above
HLA-B*27:05 = test: IEDB peptide-MHC binding, purified MHC/direct/fluorescence; filed as Kd, often an IC50 or EC50 that approximates it; ≥ and ≤ were set here for values at or beyond the usual limits of such assays; conditions: source organism: Sudan ebolavirus - Maleo (1979)
HLA-A*24:03 = test: as above; conditions: source organism: Zaire ebolavirus
HLA-A*02:01 [2] = test: as above; conditions: source organism: Homo sapiens
HLA-B*45:06 = test: IEDB peptide-MHC binding, purified MHC/competitive/fluorescence; filed as Kd, often an IC50 or EC50 that approximates it; ≥ and ≤ were set here for values at or beyond the usual limits of such assays
HLA-B*83:01 = test: as above
HLA-B*15:42 = test: as above
[3] = source organism: Zaire ebolavirus
[4] = source organism: Mycobacterium tuberculosis C
[5] = source organism: human gammaherpesvirus 4

Sequence: ISNQEPLKL
- Kd (HLA-C*15:02; source organism: Orthohantavirus dobravaense): 0.009 µM
- Kd (HLA-B*58:01; source organism: Orthohantavirus hantanense): 0.105 µM
- Kd (HLA-A*11:01): 18.6 µM

Sequence: KCNPNLHYW
- Kd (HLA-B*18:01): ≥ 20 µM
- Kd (HLA-B*46:01; [3]): ≥ 20 µM
- Kd (HLA-B*27:03; [3]): ≥ 20 µM
- Kd (HLA-A*02:01 [1]): ≥ 20 µM
- Kd (HLA-A*26:01; [3]): ≥ 20 µM
- Kd (HLA-A*69:01; [3]): ≥ 20 µM
- Kd (HLA-B*39:01): ≥ 20 µM
- Kd (HLA-B*58:01; source organism: Ebola virus - Eckron (Zaire, 1976)): 2.6 µM
- Kd (HLA-A*68:02): ≥ 20 µM
- Kd (HLA-A*02:11): ≥ 20 µM
- Kd (HLA-A*29:02): ≥ 20 µM
- Kd (HLA-A*03:01): ≥ 20 µM
- Kd (HLA-A*02:19): ≥ 20 µM
- Kd (HLA-A*02:12): ≥ 20 µM
- Kd (HLA-A*02:16): ≥ 20 µM
- Kd (HLA-A*02:03): ≥ 20 µM
- IC50 (HLA-A*24:02): 0.376 µM

Sequence: KRLQILGYL
- Kd (HLA-B*18:01): ≥ 20 µM
- Kd (HLA-B*46:01; [3]): ≥ 20 µM
- Kd (HLA-B*15:01): ≥ 20 µM
- Kd (HLA-A*02:01 [1]): ≥ 20 µM
- Kd (HLA-A*26:01; [3]): ≥ 20 µM
- Kd (HLA-A*69:01; [3]): ≥ 20 µM
- Kd (HLA-B*39:01): ≥ 20 µM
- Kd (HLA-B*15:17; [3]): ≥ 20 µM
- Kd (HLA-B*51:01; [3]): ≥ 20 µM
- Kd (HLA-B*57:01; [3]): ≥ 20 µM
- Kd (HLA-B*27:05): 0.204 µM
- Kd (HLA-A*68:02): ≥ 20 µM
- Kd (HLA-A*29:02): ≥ 20 µM
- Kd (HLA-A*03:01): ≥ 20 µM
- Kd (HLA-A*02:19): ≥ 20 µM
- Kd (HLA-A*02:12): ≥ 20 µM
- Kd (HLA-A*02:16): ≥ 20 µM
- Kd (HLA-A*24:03): ≥ 20 µM
- Kd (HLA-A*02:03): ≥ 20 µM

Sequence: FQWHEAMFL
- Kd (HLA-B*46:01; source organism: Homo sapiens): ≥ 20 µM
- Kd (HLA-B*27:03; source organism: Homo sapiens): ≥ 20 µM
- Kd (HLA-A*26:01; source organism: Homo sapiens): ≥ 20 µM
- Kd (HLA-A*69:01; source organism: Homo sapiens): ≥ 20 µM
- Kd (HLA-B*15:17; source organism: Homo sapiens): ≥ 20 µM
- Kd (HLA-B*51:01; source organism: Homo sapiens): ≥ 20 µM
- Kd (HLA-B*57:01; source organism: Homo sapiens): ≥ 20 µM
- Kd (HLA-A*02:01 [2]): 0.0002 µM

Sequence: KSLQTTRRF
- Kd (HLA-C*15:02; source organism: Histophilus somni 129PT): 0.266 µM

Sequence: RPMLARLTV
- Kd (HLA-B*45:06; [4]): ≥ 5 µM
- Kd (HLA-B*83:01; [4]): 0.185 µM
- Kd (HLA-B*15:42; [4]): ≥ 5 µM

Sequence: TEMYIMYAM
- Kd (HLA-B*45:06; [5]): ≥ 5 µM
- Kd (HLA-B*83:01; [5]): ≥ 5 µM
- Kd (HLA-B*15:42; [5]): ≥ 5 µM
